# Numbering of substitutions follows the chain as printed.
# T1: recombinant soluble human IL-6 receptor (SR344) (human, UniProt P08887 20-344, biotinylated (sites not given) where immobilized via streptavidin or used in phage ELISA)
# T1 construct: also called soluble IL-6 receptor; membrane-type IL-6 receptor (when biotinylated and immobilized on the chip)
# T1 sequence (looked up): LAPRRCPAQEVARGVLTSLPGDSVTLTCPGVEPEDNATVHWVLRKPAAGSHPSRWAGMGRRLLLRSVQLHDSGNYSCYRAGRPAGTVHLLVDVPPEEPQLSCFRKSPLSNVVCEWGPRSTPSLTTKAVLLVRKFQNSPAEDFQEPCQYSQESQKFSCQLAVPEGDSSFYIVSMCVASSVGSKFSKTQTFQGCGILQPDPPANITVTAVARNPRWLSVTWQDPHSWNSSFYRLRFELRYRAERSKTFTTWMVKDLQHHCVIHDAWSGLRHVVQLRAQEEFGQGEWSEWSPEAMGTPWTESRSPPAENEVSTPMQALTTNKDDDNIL
# B1: H3pI/L73 (antibody, IgG1, V domains shown)
# VH: QVQLQESGPGLVKPSETLSLTCAVSGHSISHDHAHSWVRQPPGEGLEWIGYISYSGITNYNPSLKGRVTISRDTSKNQFSLKLSSVTAADTAAYYCARSLARTTAMDYWGEGTLVTVSS
# VL: DIQMTQSPSSLSASVGDSVTITCQASQHISSHLNWYQQKPGKAPELLIYYGSHLHSGVPSRFSGSGSGTDFTFTISSLEAEDAATYYCGQGNRLPYTFGQGTKVEIE
# notes: tested as IgG1; also called H3pI/L73-IgG1; H3pl/L73
# B2: H170/L82 (antibody, IgG1, V domains shown)
# VH: B1 VH with D32H, N59H, S63H, S99V, T103I, Y108H
# VL: B1 VL with H28D
# notes: expressed and purified as IgG (IgG1); also called H170/L82-IgG1
# B3: humanized PM1 antibody (wild type, WT) (antibody, human IgG1, kappa, V domains shown)
# VH: QVQLQESGPGLVRPSQTLSLTCTVSGYSITSDHAWSWVRQPPGRGLEWIGYISYSGITTYNPSLKSRVTMLRDTSKNQFSLRLSSVTAADTAVYYCARSLARTTAMDYWGQGSLVTVSS
# VL: DIQMTQSPSSLSASVGDRVTITCRASQDISSYLNWYQQKPGKAPKLLIYYTSRLHSGVPSRFSGSGSGTDFTFTISSLQPEDIATYYCQQGNTLPYTFGQGTKVEIKR
# notes: IgG1; also called WT-IgG1; wild type humanized anti-IL-6 receptor antibody
# B4: Fv4-IgG1 (antibody)
# heavy: not shown
# light: DIQMTQSPSSLSASVGDSVTITCQASTDISSHLNWYQQKPGKAPELLIYYGSHLLSGVPSRFSGSGSGTDFTFTISSLEAEDAATYYCGQGNRLPYTFGQGTKVEIERTVAAPSVFIFPPSDEQLKSGTASVVCLLNNFYPREAKVQWKVDNALQSGNSQESVTEQDSKDSTYSLSSTLTLSKADYEKHKVYACEVTHQGLSSPVTKSFNRGEC
# notes: VH3-IgG1 / VL3-CK
# Molecular target: T1, recombinant soluble human IL-6 receptor …
# Assay: SPR Biacore T100, antibody on protein A/G chip, SR344 analyte, pH 5.8, 37 C
# Experimental: Kinetic analyses of antigen-antibody reactions at pH 5.8 and pH 7.4 were carried out using a Biacore™ T100 surface plasmon resonance system (GE Healthcare) on the four antibodies: humanized PM1 antibody (WT) and H3pI/L73, CLH5/L73, and H170/L82 produced in Examples 2 and 4 (buffer: 10 mM MES (pH 7.4 or pH 5.8), 150 mM NaCl, and 0.05% TWEEN® 20 (polyoxyethelene sorbitan monolaurate)). Various antibodies were bound onto a sensor chip immobilized with recomb-protein A/G (Pierce) by amine coupling. SR344 adjusted to concentrations of 9.8 to 400 nM was injected to the chip as an analyte. […] All the measurements were carried out at 37° C. Association rate constants kₐ (1/Ms) and dissociation rate constants kd (1/s) were calculated using Biacore T100™ Evaluation Software (GE Healthcare), and dissociation constants KD (M) were calculated on the basis of those values (Table 5). Moreover, the ratio of the affinities at pH 5.8 and pH 7.4 were calculated for each clone to evaluate pH-dependent binding. All the measurements were carried out at 37° C.
Binder,Kd,koff,kon
B1,57 nM,0.0097 s⁻¹,170000 M⁻¹ s⁻¹
B2,640 nM,0.017 s⁻¹,26000 M⁻¹ s⁻¹
B3,5 nM,0.0038 s⁻¹,760000 M⁻¹ s⁻¹

# Molecular target: T1, recombinant soluble human IL-6 receptor …
# Assay: as above
# Remark: another data set of the same source
# Experimental: (§1) Kinetic analysis of antigen-antibody reactions at pH 7.4 and pH 5.8 was carried out using a Biacore T100™ surface plasmon resonance system (GE Healthcare) for the four types of antibodies prepared: WT-IgG1, H54/L28-IgG1, H170/L82-IgG1, and Fv4-IgG1 (buffer: 10 mM MES (pH 7.4 or pH 5.8), 150 mM NaCl, 0.05% Surfactant P20 (polyoxyethelene sorbitan monolaurate)). The antibodies were bound to a sensor chip on which recomb-protein A/G (Pierce) was immobilized by amine coupling, and SR344 adjusted to an appropriate concentration was injected therein as an analyte. The association with and dissociation from SR344 of each type of antibody were observed on a real-time basis. All the measurements were carried out at 37° C. Association rate constants kₐ (1/Ms) and dissociation rate constants kd (1/s) were calculated using Biacore T100™ Evaluation Software (GE Healthcare), and dissociation constants KD (M) were calculated based on those values (Table 17).
Binder,Kd,koff,kon
B2,100 nM,0.013 s⁻¹,120000 M⁻¹ s⁻¹
B3,3.1 nM,0.0027 s⁻¹,890000 M⁻¹ s⁻¹
B4,26 nM,0.037 s⁻¹,1.4e+06 M⁻¹ s⁻¹

# Molecular target: T1, recombinant soluble human IL-6 receptor …
# Assay: SPR Biacore T100, antibody on protein A/G chip, SR344 analyte, pH 7.4, 37 C
# Experimental: as §1
Binder,Kd,koff,kon
B2,1.6 nM,0.0011 s⁻¹,670000 M⁻¹ s⁻¹
B3,1.9 nM,0.00094 s⁻¹,490000 M⁻¹ s⁻¹
B4,0.97 nM,0.00095 s⁻¹,980000 M⁻¹ s⁻¹

# Molecular target: T1, recombinant soluble human IL-6 receptor …
# Assay: SPR Biacore T100, antibody on protein A/G chip, SR344 analyte, 37 C, ratio of pH 5.8 to pH 7.4
# Experimental: as §1
Binder,KD (pH 5.8)/KD (pH 7.4),kd (pH 5.8)/kd (pH 7.4)
B2,61.9,11.4
B3,1.6,2.9
B4,27.3,38.8

# Molecular target: T1, recombinant soluble human IL-6 receptor …
# Assay: SPR Biacore T100, biotinylated SR344 on streptavidin chip (model of membrane-type IL-6 receptor), antibody 0.25 ug/mL as analyte, 37 C
# Experimental: (§2) Binding to the membrane-type IL-6 receptor was evaluated by evaluating binding to the IL-6 receptor immobilized on a sensor chip. SR344 was biotinylated in accordance with a method known among persons with ordinary skill in the art, and the biotinylated SR344 was immobilized on the sensor chip via streptavidin using the affinity between streptavidin and biotin. All the measurements were carried out at 37° C. The mobile phase buffer was 10 mM MES (pH 5.8), 150 mM NaCl and 0.05% TWEEN® 20 (polyoxyethelene sorbitan monolaurate).
# (§3) The pH-dependently-binding clones were injected under the condition of pH 7.4 to allow them to bind to SR344, and then, the pH-dependent dissociation of each clone at the pH of the mobile phase, pH 5.8, was observed. The results are shown in FIG. 21 (results for Fv1-M71, Fv1-M73, Fv3-M71, and Fv3-M73 are shown in FIG. 21, while results for other clones are shown in FIGS. 17 and 19). Analyses were carried out in the same manner as in Example 10 and the pH dependencies of the dissociation rate constants of all of the eleven types of clones are shown in Table 12.
row,Binder,kd (pH 5.8)/kd (pH 7.4)
1,B1,2.59
2,B3,1
3,B4,5.56

# Molecular target: T1, recombinant soluble human IL-6 receptor …
# Assay: SPR Biacore T100, biotinylated SR344 on streptavidin chip (model of membrane-type IL-6 receptor), antibody as analyte, bound at pH 7.4, dissociation at pH 7.4, 37 C
row,Binder,koff
1,B1,0.00026 s⁻¹
2,B3,0.00025 s⁻¹
3,B4,0.00047 s⁻¹

# Molecular target: T1, recombinant soluble human IL-6 receptor …
# Assay: SPR Biacore T100, biotinylated SR344 on streptavidin chip (model of membrane-type IL-6 receptor), antibody 0.25 ug/mL as analyte, bound at pH 7.4, dissociation at pH 5.8, 37 C
# Experimental: as §2, §3
row,Binder,koff
1,B1,0.00067 s⁻¹
2,B3,0.00025 s⁻¹
3,B4,0.0026 s⁻¹
